Assay results taken from PMC11809610.

T1: CD95 (full-length protein, amino acids 1 to 335) fused C-terminally to mEGFP or mCherry (human (from the printed accession)), P25445
T1 chain: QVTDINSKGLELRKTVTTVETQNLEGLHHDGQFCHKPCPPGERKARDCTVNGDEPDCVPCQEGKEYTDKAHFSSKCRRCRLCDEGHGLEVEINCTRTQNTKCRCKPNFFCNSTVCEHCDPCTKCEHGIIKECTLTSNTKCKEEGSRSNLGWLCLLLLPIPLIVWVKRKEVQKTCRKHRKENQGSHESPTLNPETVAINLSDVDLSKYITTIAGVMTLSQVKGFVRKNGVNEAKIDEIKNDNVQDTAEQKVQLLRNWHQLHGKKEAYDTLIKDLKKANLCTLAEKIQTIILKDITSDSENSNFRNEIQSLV


Experiments:
[1] = biological target: CD95 (full-length protein, amino acids 1 to 335) fused C-terminally to mEGFP or mCherry (human (from the printed accession)) (UniProt P25445)
[2] = biological target: T1, CD95 (full-length protein, amino acids …); assay: FRET or BRET; CELFIS (FRET-FLIM, donor lifetime, x_FRET for each cell) in live HeLa CD95^KO cells with bicistronic mCherry/mEGFP plasmids; no ligand; evaluated from 30 up to 1000 receptors/μm^2; 37°C; settings: remark: other sources report otherwise
[3] = biological target: T1, CD95 (full-length protein, amino acids …); assay: FRET or BRET; CELFIS (FRET-FLIM) in live HeLa CD95^KO cells with bicistronic mCherry/mEGFP plasmids; after addition of CD95L (200 ng/ml with enhancer); repeated measurements up to 6 hours; 37°C; settings: remark: other sources report otherwise

Row | percentage of apoptotic cells (time-lapse microscopy, HeLa cells expressing CD95-mEGFP), CD95L 2 to 200 ng/ml (% apoptotic cells) [1] | dimer fraction [2] | monomer fraction [2] | oligomer fraction with CD95L [3] | oligomer fraction with CD95L, cells that did not show apoptosis, after 4 hours [3] | oligomer fraction with CD95L, cells that underwent apoptosis [3] | oligomer fraction with CD95L, just before apoptosis [3] | oligomerization rate with CD95L, cells that died (% oligomers/hour) [3] | oligomerization rate with CD95L, cells that stayed alive (% oligomers/hour) [3] | x FRET with CD95L [3] | Molecule
1 | 99 | – | – | – | – | – | – | – | – | – | FasL, soluble (human) (recombinant) (from UniProt P48023 130-281) (ligand)
2 | – | < 4% | 96% | < 21% | 12% | 18% | 15% | 6 | 2.3 | 12% | CD95 (full-length protein, amino acids 1 to 335) fused C-terminally to mEGFP or mCherry, P25445 26-335 (receptor) QVTDINSKGLELRKTVTTVETQNLEGLHHDGQFCHKPCPPGERKARDCTVNGDEPDCVPCQEGKEYTDKAHFSSKCRRCRLCDEGHGLEVEINCTRTQNTKCRCKPNFFCNSTVCEHCDPCTKCEHGIIKECTLTSNTKCKEEGSRSNLGWLCLLLLPIPLIVWVKRKEVQKTCRKHRKENQGSHESPTLNPETVAINLSDVDLSKYITTIAGVMTLSQVKGFVRKNGVNEAKIDEIKNDNVQDTAEQKVQLLRNWHQLHGKKEAYDTLIKDLKKANLCTLAEKIQTIILKDITSDSENSNFRNEIQSLV
